Test results reported in US20160136234A1.

How the values were obtained:
Experiment in all cases: cell-based or functional assay
SIK (h) (human) = SIK (h) (human) (UniProt P57059)
Abl (h) (human) = Abl (h) (human) (UniProt P00519)
Abl(T315I) (h) (human) = Abl(T315I) (h) (human) (UniProt P00519)
PKCβII (h) (human) = PKCβII (h) (human) (UniProt P05771)
cKit (h) (human) = cKit (h) (human) (UniProt P10721)
GRK6 (h) (human) = GRK6 (h) (human) (UniProt P43250)
Pim-3 (h) (human) = Pim-3 (h) (human) (UniProt Q86V86)
LKB1 (h) (human) = biological target: T1, LKB1 (h) (human) (UniProt Q15831)
T1 sequence (looked up): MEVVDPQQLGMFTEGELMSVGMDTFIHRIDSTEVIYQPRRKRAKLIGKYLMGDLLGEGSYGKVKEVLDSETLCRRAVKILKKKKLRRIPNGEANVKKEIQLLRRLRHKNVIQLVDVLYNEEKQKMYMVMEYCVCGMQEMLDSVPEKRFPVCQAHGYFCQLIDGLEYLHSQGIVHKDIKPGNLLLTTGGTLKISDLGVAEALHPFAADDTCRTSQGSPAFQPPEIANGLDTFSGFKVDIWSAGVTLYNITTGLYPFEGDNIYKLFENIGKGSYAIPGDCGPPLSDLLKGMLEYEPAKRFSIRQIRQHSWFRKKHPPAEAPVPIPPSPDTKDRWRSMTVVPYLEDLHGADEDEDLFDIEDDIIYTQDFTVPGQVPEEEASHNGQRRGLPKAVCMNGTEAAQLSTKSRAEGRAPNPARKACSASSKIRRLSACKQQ

MKK7β (h) (human) = MKK7β (h) (human) (UniProt O14733)
CaMKIIδ (h) (human) = CaMKIIδ (h) (human) (UniProt Q13557)
cKit(V654A) (h) (human) = cKit(V654A) (h) (human) (UniProt P10721)
HIPK2 (h) (human) = HIPK2 (h) (human) (UniProt Q9H2X6)
CaMKIIγ (h) (human) = CaMKIIγ (h) (human) (UniProt Q13555)
EphB4 (h) (human) = EphB4 (h) (human) (UniProt P54760)
BrSK1 (h) (human) = biological target: T2, BrSK1 (h) (human) (UniProt Q8TDC3)
T2 sequence (looked up): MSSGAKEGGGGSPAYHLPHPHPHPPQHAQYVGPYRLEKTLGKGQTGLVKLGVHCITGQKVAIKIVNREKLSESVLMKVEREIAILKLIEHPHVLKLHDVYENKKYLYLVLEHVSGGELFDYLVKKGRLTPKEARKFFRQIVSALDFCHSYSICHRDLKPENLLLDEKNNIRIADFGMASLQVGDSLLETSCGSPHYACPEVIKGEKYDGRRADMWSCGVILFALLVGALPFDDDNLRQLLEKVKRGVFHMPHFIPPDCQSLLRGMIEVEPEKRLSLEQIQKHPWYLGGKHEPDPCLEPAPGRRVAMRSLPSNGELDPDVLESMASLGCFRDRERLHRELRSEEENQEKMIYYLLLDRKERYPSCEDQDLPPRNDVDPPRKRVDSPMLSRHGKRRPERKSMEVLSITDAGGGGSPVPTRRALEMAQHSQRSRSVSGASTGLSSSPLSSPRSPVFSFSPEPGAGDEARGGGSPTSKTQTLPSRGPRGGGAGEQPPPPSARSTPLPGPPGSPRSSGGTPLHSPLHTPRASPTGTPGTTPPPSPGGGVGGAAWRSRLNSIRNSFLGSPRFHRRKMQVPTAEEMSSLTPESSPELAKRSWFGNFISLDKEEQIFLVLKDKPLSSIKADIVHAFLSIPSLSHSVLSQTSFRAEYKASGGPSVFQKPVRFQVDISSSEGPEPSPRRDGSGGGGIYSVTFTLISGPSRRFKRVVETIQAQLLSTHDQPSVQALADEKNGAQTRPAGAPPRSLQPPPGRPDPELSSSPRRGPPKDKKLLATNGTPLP

Abl (Q252H) (h) (human) = Abl (Q252H) (h) (human) (UniProt P00519)
EphA4 (h) (human) = EphA4 (h) (human) (UniProt P54764)
[1] = biological target: EGFR(T790M, L858R) (h) (human) (UniProt P00533)
EphA1 (h) (human) = biological target: T3, EphA1 (h) (human) (UniProt P21709)
T3 sequence (looked up): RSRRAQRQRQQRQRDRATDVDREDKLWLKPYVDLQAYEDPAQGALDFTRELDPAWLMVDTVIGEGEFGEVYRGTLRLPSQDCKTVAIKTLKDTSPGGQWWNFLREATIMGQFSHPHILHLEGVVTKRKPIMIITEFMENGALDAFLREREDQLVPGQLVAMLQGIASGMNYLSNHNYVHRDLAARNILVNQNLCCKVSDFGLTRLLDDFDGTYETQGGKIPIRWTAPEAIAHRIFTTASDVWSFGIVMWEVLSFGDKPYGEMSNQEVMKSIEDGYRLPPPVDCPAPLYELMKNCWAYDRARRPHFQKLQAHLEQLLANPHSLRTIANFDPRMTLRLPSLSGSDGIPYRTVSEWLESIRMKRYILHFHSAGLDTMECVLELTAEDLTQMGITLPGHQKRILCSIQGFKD

[2] = biological target: PDGFRα (V561D) (h) (human) (UniProt P16234)
[3] = biological target: Lck (h) activated (human) (UniProt P06239)
SGK2 (h) (human) = biological target: T4, SGK2 (h) (human) (UniProt Q9HBY8)
T4 sequence (looked up): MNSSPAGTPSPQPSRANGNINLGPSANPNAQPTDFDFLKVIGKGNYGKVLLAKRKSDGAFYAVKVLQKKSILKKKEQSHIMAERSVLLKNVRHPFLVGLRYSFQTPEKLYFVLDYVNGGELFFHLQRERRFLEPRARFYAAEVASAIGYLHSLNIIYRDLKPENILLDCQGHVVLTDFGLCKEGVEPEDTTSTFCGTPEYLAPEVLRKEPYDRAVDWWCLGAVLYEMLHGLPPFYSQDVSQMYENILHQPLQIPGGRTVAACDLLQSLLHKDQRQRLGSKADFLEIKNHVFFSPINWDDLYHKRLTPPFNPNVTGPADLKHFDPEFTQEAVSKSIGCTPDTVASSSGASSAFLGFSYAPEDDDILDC

Chain of CaMKIIγ (h) (human) (Q13555 whole entry): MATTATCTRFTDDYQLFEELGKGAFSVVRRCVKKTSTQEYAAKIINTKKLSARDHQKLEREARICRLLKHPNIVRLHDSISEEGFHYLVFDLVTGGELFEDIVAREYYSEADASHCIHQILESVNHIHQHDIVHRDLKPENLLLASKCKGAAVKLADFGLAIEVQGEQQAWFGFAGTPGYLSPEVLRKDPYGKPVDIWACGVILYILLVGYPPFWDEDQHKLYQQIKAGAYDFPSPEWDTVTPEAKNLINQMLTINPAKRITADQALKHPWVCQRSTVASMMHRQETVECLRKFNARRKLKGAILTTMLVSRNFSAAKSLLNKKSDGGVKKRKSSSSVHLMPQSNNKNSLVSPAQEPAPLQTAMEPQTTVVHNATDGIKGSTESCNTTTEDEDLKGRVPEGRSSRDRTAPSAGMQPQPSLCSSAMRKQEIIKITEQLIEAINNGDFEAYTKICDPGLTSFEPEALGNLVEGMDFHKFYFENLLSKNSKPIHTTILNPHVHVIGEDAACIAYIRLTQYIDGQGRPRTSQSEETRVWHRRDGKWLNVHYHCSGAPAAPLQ
Chain of Abl(T315I) (h) (human) (P00519 27-1130 T315I limits assumed): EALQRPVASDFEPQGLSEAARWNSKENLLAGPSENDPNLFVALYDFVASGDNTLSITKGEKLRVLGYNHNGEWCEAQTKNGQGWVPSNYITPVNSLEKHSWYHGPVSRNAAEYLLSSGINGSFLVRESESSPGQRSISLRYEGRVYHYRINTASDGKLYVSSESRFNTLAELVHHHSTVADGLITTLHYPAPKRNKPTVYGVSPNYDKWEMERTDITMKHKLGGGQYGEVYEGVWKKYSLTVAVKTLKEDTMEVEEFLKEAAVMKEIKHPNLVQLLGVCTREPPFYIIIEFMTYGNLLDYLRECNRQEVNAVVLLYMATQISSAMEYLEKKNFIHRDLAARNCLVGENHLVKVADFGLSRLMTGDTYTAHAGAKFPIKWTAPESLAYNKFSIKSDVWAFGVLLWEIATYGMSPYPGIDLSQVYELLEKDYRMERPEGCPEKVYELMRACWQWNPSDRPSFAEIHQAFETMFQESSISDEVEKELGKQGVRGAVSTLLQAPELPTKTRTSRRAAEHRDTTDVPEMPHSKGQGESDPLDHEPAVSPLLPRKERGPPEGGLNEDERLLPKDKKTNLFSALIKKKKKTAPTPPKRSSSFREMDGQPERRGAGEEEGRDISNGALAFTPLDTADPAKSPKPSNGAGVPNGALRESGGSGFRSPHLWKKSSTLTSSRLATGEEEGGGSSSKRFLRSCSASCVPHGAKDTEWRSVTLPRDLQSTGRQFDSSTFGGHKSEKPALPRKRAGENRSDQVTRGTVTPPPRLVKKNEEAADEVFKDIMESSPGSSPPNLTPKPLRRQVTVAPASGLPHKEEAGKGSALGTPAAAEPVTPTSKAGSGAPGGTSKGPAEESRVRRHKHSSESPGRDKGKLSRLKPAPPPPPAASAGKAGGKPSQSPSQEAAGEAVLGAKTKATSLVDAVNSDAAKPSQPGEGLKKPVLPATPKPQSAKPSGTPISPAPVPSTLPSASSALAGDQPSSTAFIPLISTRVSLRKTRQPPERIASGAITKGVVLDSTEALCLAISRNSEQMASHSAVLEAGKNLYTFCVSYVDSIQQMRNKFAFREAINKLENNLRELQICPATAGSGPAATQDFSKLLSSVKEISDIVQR
Chain of EphB4 (h) (human) (P54760 561-987 limits assumed): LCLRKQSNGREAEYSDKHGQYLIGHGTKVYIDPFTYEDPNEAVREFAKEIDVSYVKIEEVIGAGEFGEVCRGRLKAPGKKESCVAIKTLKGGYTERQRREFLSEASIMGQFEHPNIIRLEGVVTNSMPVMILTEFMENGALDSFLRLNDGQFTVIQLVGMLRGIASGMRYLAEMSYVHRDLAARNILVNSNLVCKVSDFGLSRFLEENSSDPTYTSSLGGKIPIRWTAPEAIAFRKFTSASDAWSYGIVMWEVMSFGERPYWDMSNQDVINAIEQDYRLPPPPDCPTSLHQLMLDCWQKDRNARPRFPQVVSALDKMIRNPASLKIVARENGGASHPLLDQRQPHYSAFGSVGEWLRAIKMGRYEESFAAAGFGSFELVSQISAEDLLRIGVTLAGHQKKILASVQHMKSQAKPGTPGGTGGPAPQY
Chain of cKit (h) (human) (P10721 544-976): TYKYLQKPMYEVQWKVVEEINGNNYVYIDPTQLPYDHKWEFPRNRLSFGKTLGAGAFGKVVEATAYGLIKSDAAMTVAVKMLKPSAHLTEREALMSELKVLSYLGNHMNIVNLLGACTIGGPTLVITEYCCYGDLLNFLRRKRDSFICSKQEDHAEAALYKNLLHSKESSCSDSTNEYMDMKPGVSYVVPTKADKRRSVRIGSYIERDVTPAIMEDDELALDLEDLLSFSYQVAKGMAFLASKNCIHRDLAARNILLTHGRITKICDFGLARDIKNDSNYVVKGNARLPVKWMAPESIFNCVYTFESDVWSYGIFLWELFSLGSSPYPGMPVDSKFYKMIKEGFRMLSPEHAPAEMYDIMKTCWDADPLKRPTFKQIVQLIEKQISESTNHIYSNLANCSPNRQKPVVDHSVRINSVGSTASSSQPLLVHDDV
Chain of cKit(V654A) (h) (human) (P10721 544-976 V654A): as the sequence (P10721 544-976) above, with V111A counted along it
Chain of EphA4 (h) (human) (P54764 570-986 limits assumed): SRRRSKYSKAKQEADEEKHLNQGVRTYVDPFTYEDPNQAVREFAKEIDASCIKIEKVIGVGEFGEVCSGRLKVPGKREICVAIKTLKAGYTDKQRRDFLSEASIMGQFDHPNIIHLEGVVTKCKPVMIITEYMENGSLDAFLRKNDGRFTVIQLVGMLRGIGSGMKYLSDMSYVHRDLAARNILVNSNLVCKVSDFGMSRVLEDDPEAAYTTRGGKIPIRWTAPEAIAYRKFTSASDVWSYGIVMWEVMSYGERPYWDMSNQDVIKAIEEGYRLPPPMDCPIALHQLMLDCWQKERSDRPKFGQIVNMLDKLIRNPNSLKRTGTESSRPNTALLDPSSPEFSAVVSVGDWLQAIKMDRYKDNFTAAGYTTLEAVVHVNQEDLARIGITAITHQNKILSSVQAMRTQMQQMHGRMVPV
Chain of Abl (Q252H) (h) (human) (P00519 27-1130 Q252H limits assumed): as the sequence (P00519 27-1130 T315I limits assumed) above, with Q226H, I289T counted along it
Chain of PDGFRα (V561D) (h) (human) (P16234 550-1089 V561D limits assumed): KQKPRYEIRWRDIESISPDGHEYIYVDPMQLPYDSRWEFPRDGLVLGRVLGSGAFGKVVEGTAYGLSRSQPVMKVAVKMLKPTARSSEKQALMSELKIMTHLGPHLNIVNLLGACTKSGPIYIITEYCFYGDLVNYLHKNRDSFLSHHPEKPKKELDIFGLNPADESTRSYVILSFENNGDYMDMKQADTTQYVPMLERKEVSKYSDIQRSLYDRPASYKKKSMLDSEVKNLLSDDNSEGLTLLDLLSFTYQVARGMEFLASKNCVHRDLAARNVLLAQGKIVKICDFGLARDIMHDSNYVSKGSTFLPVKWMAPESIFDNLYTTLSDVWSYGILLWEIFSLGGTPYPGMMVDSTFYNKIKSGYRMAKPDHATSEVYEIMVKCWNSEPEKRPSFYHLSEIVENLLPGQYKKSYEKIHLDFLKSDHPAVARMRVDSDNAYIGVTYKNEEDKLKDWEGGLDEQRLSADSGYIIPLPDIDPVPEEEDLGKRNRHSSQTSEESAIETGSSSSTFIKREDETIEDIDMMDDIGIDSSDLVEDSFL
Chain of Abl (h) (human) (P00519 27-1130 limits assumed): as the sequence (P00519 27-1130 T315I limits assumed) above, with I289T counted along it

% activity at 100 µM (SIK (h) (human)): 66% | % activity at 100 µM (Abl (h) (human)): 69% | % activity at 100 µM (Abl(T315I) (h) (human)): 97% | % activity at 100 µM (PKCβII (h) (human)): 82% | % activity at 100 µM (cKit (h) (human)): 53% | % activity at 100 µM (GRK6 (h) (human)): 147% | % activity at 100 µM (Pim-3 (h) (human)): 80% | % activity at 100 µM (LKB1 (h) (human)): 101% | % activity at 100 µM (MKK7β (h) (human)): 100% | % activity at 100 µM (CaMKIIδ (h) (human)): 1% | % activity at 100 µM (cKit(V654A) (h) (human)): 134% | % activity at 100 µM (HIPK2 (h) (human)): 73% | % activity at 100 µM (CaMKIIγ (h) (human)): 5% | % activity at 100 µM (EphB4 (h) (human)): 44% | % activity at 100 µM (BrSK1 (h) (human)): 67% | % activity at 100 µM (Abl (Q252H) (h) (human)): 82% | % activity at 100 µM (EphA4 (h) (human)): 88% | % activity at 100 µM [1]: 85% | % activity at 100 µM (EphA1 (h) (human)): 73% | % activity at 100 µM [2]: 82% | % activity at 100 µM [3]: 243% | % activity at 100 µM (SGK2 (h) (human)): 56%
Substance: MMI-0300 (peptide)
